We go through 5 molecules from patent publication US20240417437A1, “Linker Polypeptides” (Trutino Biosciences Inc., priority 2021, published 2024).

The format of series [1] is binding. The settings on record: for fusion protein binding to heparin: pH 6. Here is the method: 96-well plates were coated with 10 μg/mL of Heparin-BSA conjugate (provided by Dr. Mueller, Boerhinger Ingelheim) or control BSA for 18-22 hours at room temperature on shaker (350 rpm). After washing, wells are blocked with 2% milk powder in PBS-0.05% Tween 20 or PBS-0.05% Tween 20/1% BSA for 90 minutes. The fusion proteins were then titrated in either 2% milk powder in PBS-0.05% Tween 20 or 1% BSA/PBS-0.05% Tween 20, pH 7.5 and/or pH 6, and added for 2 hours at room temperature with shaking. After washing, an anti-mouse IL-2 biotin-labelled detection antibody (JES6-5H4, ThermoFisher), anti-6×-His Tag HRP conjugate antibody (Invitrogen, 1 mg/mL, cat #MA1-21315-HRP), or anti-human IgG HRP conjugate antibody (SouthernBiotech) was added, and binding was detected using Ultra Streptavidin HRP (ThermoFisher). The plate was developed by adding the chromogenic tetramethylbenzidine substrate (Ultra TMB, ThermoFisher). The reaction was stopped by addition of 0.5 M H2SO4, and the absorbance was read at 450-650 nm. […] Moreover, when the same pH-dependent heparin binding motif was inserted into different locations of IL-2 fusion proteins, all resulting proteins bound heparin at pH 6 with similar high affinities (FIGS. 4F and 4G). Likewise, similar binding affinities were observed when another heparin targeting sequence was engineered into different sites of IL-2 fusion proteins (FIGS. 4H-4I). […] The heparin binding activity is recovered when a heparin binding motif is engineered into the linker polypeptide-IL-15 fusion protein (Construct WWW). Finally, linker polypeptide-IL-2 fusion proteins engineered with a heparin binding site show about 30-fold enhanced binding to heparin in vitro compared to constructs lacking a heparin binding site (Construct EEE and Construct NNNN vs. Construct AAA and Construct NNN, respectively) as shown in FIG. 4M.

Series [2] deals with fibronectin (Homo sapiens, UniProt P02751). Nature of the series: Fusion protein plate binding assay on fibronectin. As for the experimental part: A similar plate-based assay was developed to interrogate binding of IL-2 fusion variants to fibronectin. 96-well plates were coated with fibronectin (4-10 μg/mL, Sigma) or control BSA for 18-22 hours at room temperature on shaker (350 rpm). After washing, wells were blocked with 2% milk powder in PBS-0.05% Tween 20 or protein-free blocking buffer (Pierce) for 90 min, then fusion proteins were titrated in blocking buffer-0.1% Tween 20, pH 7.5 and/or pH 6, and added for 1 hour at room temperature with shaking. After washing, an anti-mouse IL-2 biotin-labelled detection antibody (JES6-5H4, ThermoFisher) or anti-human IgG HRP conjugate antibody (SouthernBiotech) was added, and binding was detected using Ultra Streptavidin HRP (ThermoFisher). The plate was developed by adding the chromogenic tetramethylbenzidine substrate (Ultra TMB, ThermoFisher). The reaction was stopped by addition of 0.5 M H2SO4, and the absorbance was read at 450-650 nm.
fibronectin, sequence (P02751 32-2477, species assumed): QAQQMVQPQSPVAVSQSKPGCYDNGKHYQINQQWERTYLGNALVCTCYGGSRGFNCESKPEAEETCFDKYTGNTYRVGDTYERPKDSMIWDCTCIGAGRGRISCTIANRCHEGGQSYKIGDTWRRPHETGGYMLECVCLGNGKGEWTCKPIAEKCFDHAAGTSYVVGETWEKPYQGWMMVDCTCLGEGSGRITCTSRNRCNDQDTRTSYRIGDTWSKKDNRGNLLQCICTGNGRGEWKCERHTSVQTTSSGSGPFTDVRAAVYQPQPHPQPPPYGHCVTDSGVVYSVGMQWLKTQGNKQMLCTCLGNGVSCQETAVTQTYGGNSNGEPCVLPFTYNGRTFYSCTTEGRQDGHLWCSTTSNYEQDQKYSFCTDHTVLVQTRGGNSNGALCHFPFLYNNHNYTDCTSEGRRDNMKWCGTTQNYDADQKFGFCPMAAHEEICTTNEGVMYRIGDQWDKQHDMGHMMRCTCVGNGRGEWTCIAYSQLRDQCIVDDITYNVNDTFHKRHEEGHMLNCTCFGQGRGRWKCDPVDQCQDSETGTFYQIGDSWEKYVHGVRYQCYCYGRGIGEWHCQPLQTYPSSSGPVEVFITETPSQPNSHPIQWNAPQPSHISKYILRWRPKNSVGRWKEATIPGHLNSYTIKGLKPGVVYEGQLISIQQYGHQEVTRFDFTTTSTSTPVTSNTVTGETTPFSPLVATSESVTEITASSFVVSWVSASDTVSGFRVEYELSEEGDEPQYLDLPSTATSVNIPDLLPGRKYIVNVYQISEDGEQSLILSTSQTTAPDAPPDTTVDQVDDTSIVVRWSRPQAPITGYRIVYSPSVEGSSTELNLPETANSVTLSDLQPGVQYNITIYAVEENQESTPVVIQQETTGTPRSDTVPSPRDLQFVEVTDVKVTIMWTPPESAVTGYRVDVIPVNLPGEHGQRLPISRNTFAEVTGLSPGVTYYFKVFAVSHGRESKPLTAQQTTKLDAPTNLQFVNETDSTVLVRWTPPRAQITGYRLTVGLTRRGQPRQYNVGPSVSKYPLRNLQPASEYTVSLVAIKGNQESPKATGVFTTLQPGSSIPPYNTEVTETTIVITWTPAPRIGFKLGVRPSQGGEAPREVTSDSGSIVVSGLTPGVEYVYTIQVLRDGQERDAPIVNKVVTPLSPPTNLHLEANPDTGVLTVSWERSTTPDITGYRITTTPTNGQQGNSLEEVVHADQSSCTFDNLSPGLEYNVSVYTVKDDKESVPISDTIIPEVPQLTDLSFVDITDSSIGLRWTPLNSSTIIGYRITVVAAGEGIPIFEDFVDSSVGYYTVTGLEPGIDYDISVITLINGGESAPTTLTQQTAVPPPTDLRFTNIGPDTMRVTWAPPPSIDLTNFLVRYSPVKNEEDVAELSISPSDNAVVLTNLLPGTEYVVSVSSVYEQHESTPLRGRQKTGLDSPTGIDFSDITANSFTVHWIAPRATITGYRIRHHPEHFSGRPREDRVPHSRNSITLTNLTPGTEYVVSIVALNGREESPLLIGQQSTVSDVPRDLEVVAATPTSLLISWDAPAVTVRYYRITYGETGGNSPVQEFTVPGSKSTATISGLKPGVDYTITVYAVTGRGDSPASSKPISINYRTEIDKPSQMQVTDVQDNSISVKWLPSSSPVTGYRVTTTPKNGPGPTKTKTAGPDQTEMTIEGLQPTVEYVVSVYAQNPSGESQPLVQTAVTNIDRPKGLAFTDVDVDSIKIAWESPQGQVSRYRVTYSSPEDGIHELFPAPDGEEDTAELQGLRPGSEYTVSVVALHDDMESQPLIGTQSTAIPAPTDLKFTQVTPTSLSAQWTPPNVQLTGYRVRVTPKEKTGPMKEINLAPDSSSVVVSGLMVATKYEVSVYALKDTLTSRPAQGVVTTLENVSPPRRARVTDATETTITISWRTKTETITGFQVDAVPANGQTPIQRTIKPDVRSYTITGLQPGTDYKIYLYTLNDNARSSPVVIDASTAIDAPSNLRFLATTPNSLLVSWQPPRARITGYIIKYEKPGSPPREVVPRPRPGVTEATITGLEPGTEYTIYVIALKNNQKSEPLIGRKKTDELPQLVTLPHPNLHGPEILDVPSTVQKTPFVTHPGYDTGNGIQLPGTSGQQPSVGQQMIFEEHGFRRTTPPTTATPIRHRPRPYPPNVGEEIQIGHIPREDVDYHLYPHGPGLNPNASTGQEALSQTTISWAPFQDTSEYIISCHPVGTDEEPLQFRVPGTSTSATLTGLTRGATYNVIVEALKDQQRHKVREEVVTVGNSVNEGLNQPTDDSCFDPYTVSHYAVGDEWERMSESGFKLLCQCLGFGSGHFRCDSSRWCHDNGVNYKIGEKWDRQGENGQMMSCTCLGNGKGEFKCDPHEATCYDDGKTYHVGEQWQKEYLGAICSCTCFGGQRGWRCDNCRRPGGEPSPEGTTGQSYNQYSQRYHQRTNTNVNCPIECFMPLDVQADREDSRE

B1: Construct NN: mIL2-2x(SG4)-MMPcs1-2x(GHHPH)-mIL2Ra(1-215)-muIgG1Fc; pH heparin (protein)
chain: APTSSSTSSSTAEAQQQQQQQQQQQQHLEQLLMDLQELLSRMENYRNLKLPRMLTFKFYLPKQATELKDLQCLEDELGPLRHVLDLTQSKSFQLEDAENFISNIRVTVVKLKGSDNTFECQFDDESATVVDFLRRWIAFCQSIISTSPQSGGGGSGGGGGPLGVRGGHHPHGHHPHELCLYDPPEVPNATFKALSYKNGTILNCECKRGFRRLKELVYMRCLGNSWSSNCQCTSNSHDKSRKQVTAQLEHQKEQQTTTDMQKPTQSMHQENLTGHCREPPPWKHEDSKRIYHFVEGQSVHYECIPGYKALQRGPAISICKMKCGKTGWTQPQLTCVDEREHHRFLASEESQGSRNSSPESETSCPITTTDFPQPTETTAMTETFVLTMEYKGCKPCICTVPEVSSVFIFPPKPKDVLTITLTPKVTCVVVDISKDDPEVQFSWFVDDVEVHTAQTQPREEQFNSTFRSVSELPIMHQDWLNGKEFKCRVNSAAFPAPIEKTISKTKGRPKAPQVYTIPPPKEQMAKDKVSLTCMITDFFPEDITVEWQWNGQPAENYKNTQPIMDTDGSYFVYSKLNVQKSNWEAGNTFTCSVLHEGLHNHHTEKSLSHSPGK
modifications: Synthetic: Construct NN
notes: mIL2-2x(SG4)-MMPcs1-2x(GHHPH)-mIL2Ra(1-215)-muIgG1Fc; pH heparin
B1: the “fusion protein binding to heparin” value in series [1] was “mimicked the Construct CC binding profile”.

B2: Construct B: mIL2-2x(SG4)-MMPcs1-2x(G4S)-mIL2Ralpha(1-215)-mIgG1Fc; no TME (protein)
chain: APTSSSTSSSTAEAQQQQQQQQQQQQHLEQLLMDLQELLSRMENYRNLKLPRMLTFKFYLPKQATELKDLQCLEDELGPLRHVLDLTQSKSFQLEDAENFISNIRVTVVKLKGSDNTFECQFDDESATVVDFLRRWIAFCQSIISTSPQSGGGGSGGGGGPLGVRGGGGGSGGGGSELCLYDPPEVPNATFKALSYKNGTILNCECKRGFRRLKELVYMRCLGNSWSSNCQCTSNSHDKSRKQVTAQLEHQKEQQTTTDMQKPTQSMHQENLTGHCREPPPWKHEDSKRIYHFVEGQSVHYECIPGYKALQRGPAISICKMKCGKTGWTQPQLTCVDEREHHRFLASEESQGSRNSSPESETSCPITTTDFPQPTETTAMTETFVLTMEYKGCKPCICTVPEVSSVFIFPPKPKDVLTITLTPKVTCVVVDISKDDPEVQFSWFVDDVEVHTAQTQPREEQFNSTFRSVSELPIMHQDWLNGKEFKCRVNSAAFPAPIEKTISKTKGRPKAPQVYTIPPPKEQMAKDKVSLTCMITDFFPEDITVEWQWNGQPAENYKNTQPIMDTDGSYFVYSKLNVQKSNWEAGNTFTCSVLHEGLHNHHTEKSLSHSPGK
modifications: Synthetic: Construct B polypeptide sequence: m IL2-2x(SG4) MMPcs1 2x (G4S) IL2Ralpha mIgG1 Fc
notes: mIL2-2x(SG4)-MMPcs1-2x(G4S)-mIL2Ralpha(1-215)-mIgG1Fc; no TME
For the molecule B2, in series [1], the “heparin binding EC50 value, fold higher than Construct CC” value was “greater than 100 fold” and the “fusion protein binding to heparin” value is recorded as “much weaker”. Also, the “fusion protein binding to fibronectin” value in series [2] (acidic pH (pH 6)) was “No significant binding”. In addition, the “fusion protein binding to fibronectin” value in series [2] (pH 7.5 (neutral)) is on record as “No significant binding”.

B3: Construct Y: mIL2(C140S)-VRIQRKKEKMKET-MMPcs1-2x(G4S)-mIL2Ra(1-215)-muIgG1Fc; heparin (protein)
chain: APTSSSTSSSTAEAQQQQQQQQQQQQHLEQLLMDLQELLSRMENYRNLKLPRMLTFKFYLPKQATELKDLQCLEDELGPLRHVLDLTQSKSFQLEDAENFISNIRVTVVKLKGSDNTFECQFDDESATVVDFLRRWIAFSQSIISTSPQVRIQRKKEKMKETGPLGVRGGGGGSGGGGSELCLYDPPEVPNATFKALSYKNGTILNCECKRGFRRLKELVYMRCLGNSWSSNCQCTSNSHDKSRKQVTAQLEHQKEQQTTTDMQKPTQSMHQENLTGHCREPPPWKHEDSKRIYHFVEGQSVHYECIPGYKALQRGPAISICKMKCGKTGWTQPQLTCVDEREHHRFLASEESQGSRNSSPESETSCPITTTDFPQPTETTAMTETFVLTMEYKIEGRMDGCKPCICTVPEVSSVFIFPPKPKDVLTITLTPKVTCVVVDISKDDPEVQFSWFVDDVEVHTAQTQPREEQFNSTFRSVSELPIMHQDWLNGKEFKCRVNSAAFPAPIEKTISKTKGRPKAPQVYTIPPPKEQMAKDKVSLTCMITDFFPEDITVEWQWNGQPAENYKNTQPIMDTDGSYFVYSKLNVQKSNWEAGNTFTCSVLHEGLHNHHTEKSLSHSPGK
modifications: Synthetic: Construct Y
notes: mIL2(C140S)-…-MMPcs1-2x(G4S)-mIL2Ra(1-215)-muIgG1Fc; heparin
B3: in series [1], the “fusion protein binding to heparin” value is “bound heparin in a dose-dependent manner and with higher affinity than Construct B”.

B4: Construct CC: mIL2-2x(GHHPH)-MMPcs1-2x(G4S)-mIL2Ra(1-215)-muIgG1Fc; pH heparin (protein)
chain: APTSSSTSSSTAEAQQQQQQQQQQQQHLEQLLMDLQELLSRMENYRNLKLPRMLTFKFYLPKQATELKDLQCLEDELGPLRHVLDLTQSKSFQLEDAENFISNIRVTVVKLKGSDNTFECQFDDESATVVDFLRRWIAFCQSIISTSPQGHHPHGHHPHGPLGVRGGGGGSGGGGSELCLYDPPEVPNATFKALSYKNGTILNCECKRGFRRLKELVYMRCLGNSWSSNCQCTSNSHDKSRKQVTAQLEHQKEQQTTTDMQKPTQSMHQENLTGHCREPPPWKHEDSKRIYHFVEGQSVHYECIPGYKALQRGPAISICKMKCGKTGWTQPQLTCVDEREHHRFLASEESQGSRNSSPESETSCPITTTDFPQPTETTAMTETFVLTMEYKGCKPCICTVPEVSSVFIFPPKPKDVLTITLTPKVTCVVVDISKDDPEVQFSWFVDDVEVHTAQTQPREEQFNSTFRSVSELPIMHQDWLNGKEFKCRVNSAAFPAPIEKTISKTKGRPKAPQVYTIPPPKEQMAKDKVSLTCMITDFFPEDITVEWQWNGQPAENYKNTQPIMDTDGSYFVYSKLNVQKSNWEAGNTFTCSVLHEGLHNHHTEKSLSHSPGK
modifications: Synthetic: Construct CC
notes: mIL2-2x(GHHPH)-MMPcs1-2x(G4S)-mIL2Ra(1-215)-muIgG1Fc; pH heparin
For orientation: EC50 means the concentration at which the effect is half-maximal. Regarding B4, the concentration giving a half-maximal response (EC50) in series [1] (acidic pH, read-out: heparin binding EC50) was around 10 nM. For the same molecule, the “fusion protein binding to heparin” value in series [1] is “bound heparin in a dose-dependent manner and with higher affinity than Construct B”. Further, the “pH preference of heparin binding” value in series [1] (pH 6 vs pH 7.5) is listed as “preferentially bound heparin at acidic pH”.

B5: Construct EE: mIL2-SGG-GGWSHW-MMPcs1-2x(G4S)-mIL2Ra(1-215)-muIgG1Fc; pH fibronectin (protein)
chain: APTSSSTSSSTAEAQQQQQQQQQQQQHLEQLLMDLQELLSRMENYRNLKLPRMLTFKFYLPKQATELKDLQCLEDELGPLRHVLDLTQSKSFQLEDAENFISNIRVTVVKLKGSDNTFECQFDDESATVVDFLRRWIAFCQSIISTSPQSGGGGWSHWGPLGVRGGGGGSGGGGSELCLYDPPEVPNATFKALSYKNGTILNCECKRGFRRLKELVYMRCLGNSWSSNCQCTSNSHDKSRKQVTAQLEHQKEQQTTTDMQKPTQSMHQENLTGHCREPPPWKHEDSKRIYHFVEGQSVHYECIPGYKALQRGPAISICKMKCGKTGWTQPQLTCVDEREHHRFLASEESQGSRNSSPESETSCPITTTDFPQPTETTAMTETFVLTMEYKGCKPCICTVPEVSSVFIFPPKPKDVLTITLTPKVTCVVVDISKDDPEVQFSWFVDDVEVHTAQTQPREEQFNSTFRSVSELPIMHQDWLNGKEFKCRVNSAAFPAPIEKTISKTKGRPKAPQVYTIPPPKEQMAKDKVSLTCMITDFFPEDITVEWQWNGQPAENYKNTQPIMDTDGSYFVYSKLNVQKSNWEAGNTFTCSVLHEGLHNHHTEKSLSHSPGK
modifications: Synthetic: Construct EE
notes: mIL2-SGG-GGWSHW-MMPcs1-2x(G4S)-mIL2Ra(1-215)-muIgG1Fc; pH fibronectin
In the case of B5, the “fusion protein binding to fibronectin” value in series [2] (acidic pH (pH 6)) is “dose-dependent binding”; in series [2] (pH 7.5 (neutral)), “no binding”.
